Molecular target: RPA (native, unlabeled heterotrimer) (human, UniProt P27694;P15927;P35244 1-616;1-270;1-121)
Test: FRET equilibrium titration

RPA (native, unlabeled heterotrimer), sequence (P27694 whole entry, chain 1 of 3): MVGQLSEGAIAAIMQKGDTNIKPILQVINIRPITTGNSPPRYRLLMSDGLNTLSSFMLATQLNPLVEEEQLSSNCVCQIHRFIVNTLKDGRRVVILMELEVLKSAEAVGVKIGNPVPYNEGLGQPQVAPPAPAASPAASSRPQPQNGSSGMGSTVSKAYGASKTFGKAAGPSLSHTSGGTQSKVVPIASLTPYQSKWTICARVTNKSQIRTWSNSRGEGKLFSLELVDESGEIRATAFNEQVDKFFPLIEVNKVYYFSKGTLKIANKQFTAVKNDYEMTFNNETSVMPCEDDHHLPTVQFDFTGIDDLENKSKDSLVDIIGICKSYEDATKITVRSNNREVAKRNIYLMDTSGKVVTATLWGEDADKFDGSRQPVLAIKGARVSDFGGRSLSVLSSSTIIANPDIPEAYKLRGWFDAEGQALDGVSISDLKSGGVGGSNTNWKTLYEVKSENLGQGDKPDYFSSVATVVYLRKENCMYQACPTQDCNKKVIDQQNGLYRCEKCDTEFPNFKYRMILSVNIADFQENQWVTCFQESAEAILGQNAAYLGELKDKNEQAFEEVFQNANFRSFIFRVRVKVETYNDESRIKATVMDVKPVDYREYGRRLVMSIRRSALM
RPA (native, unlabeled heterotrimer), sequence (P15927 whole entry, chain 2 of 3): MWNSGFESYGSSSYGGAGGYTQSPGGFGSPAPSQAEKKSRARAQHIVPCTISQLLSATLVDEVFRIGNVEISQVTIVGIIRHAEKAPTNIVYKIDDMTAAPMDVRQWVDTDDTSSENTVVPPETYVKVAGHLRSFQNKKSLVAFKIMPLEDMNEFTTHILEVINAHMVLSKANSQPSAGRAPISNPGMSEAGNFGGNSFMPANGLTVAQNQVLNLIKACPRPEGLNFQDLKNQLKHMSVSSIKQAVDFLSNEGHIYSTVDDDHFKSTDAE
RPA (native, unlabeled heterotrimer), sequence (P35244 whole entry, chain 3 of 3): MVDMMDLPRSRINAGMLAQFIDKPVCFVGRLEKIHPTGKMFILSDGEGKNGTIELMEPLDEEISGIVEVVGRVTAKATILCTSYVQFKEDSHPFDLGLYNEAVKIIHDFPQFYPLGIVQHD

TTTTTTTTTTTTTTTTTTTTTTTTTTTTTT (ssDNA) [poly(dT)30-FRET]
binding result: binds
